Test results taken from US20110318757A1 (MAB FACTORY, published 2011).

How the values were obtained:
32-mer MUC1 peptide [1] = target: T1, 32-mer MUC1 peptide (human); assay: titration ELISA, MUC1 peptide (32mer Cys) 50 ng/well, IgG diluted 1:3.16 from 100 µg/mL, detection goat anti-human IgG (Fc) HRP, TMB; mean of three plates, BSA value subtracted; A450-A620
T1 construct: also called MUC1 peptide antigen (32mer cys); MUC1 peptide (32 mer cys)
T1 peptide: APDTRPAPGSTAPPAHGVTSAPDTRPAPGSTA
Experimental: 3× Nunc Maxisorp plates coated with 50 ng/well MUC1 peptide antigen (32mer cys, sequence: […]) [0227] Control plate was coated with 100 ng/well BSA [0228] Blocking solution: 2% skim milk powder in PBS-T (0.1% Tween), 1 h, RT [0229] IgG samples were diluted to a final concentration of 100 μg/ml with blocking solution [0230] samples were sequentially diluted 1:3.16 [0231] detection: goat anti-human IgG (Fc spec) HRP conjugate (Sigma, 1:39000), 1 h, RT [0232] Development: TMB substrate, reaction stopped with sulfuric acid after 10 minutes. [0233] A450-A620 measured in a Tecan Sunrise Reader [0234] […] Mean value and standard deviation of three plates (MUC1) calculated [0236] BSA value (negative control) subtracted from mean value [0237] Plotting: [0238]

32-mer MUC1 peptide [2] = target: T1, 32-mer MUC1 peptide; assay: ELISA, IgG on coated 32-mer MUC1 peptide
Experimental: (§1) This analysis was done using the ELISA technique wherein the 32-mer MUC1 peptide is immobilized in the wells of a microtitre plate, and wherein the anti-MUC1 antibodies are added later in different concentrations.

32-mer MUC1 peptide [3] = target: T1, 32-mer MUC1 peptide; assay: ELISA, 32-mer MUC1 peptide immobilized in microtitre wells, IgG about 0.03 to 8000 ng/well, A450-A620 (preliminary results according to the legend)
Experimental: as §1

[4] = target: T2, MUC1 peptide (15 aa+cystein, APDTRPAPGSTAPPAC) (human); assay: SPR, scFv 2-200 nM over immobilized MUC1 peptide, Chip 1 (47 RU)
T2 construct: If the listing entry has only 15 residues, a C-terminal Cys must be added; Immobilized on the SPR chip; also called synthetic MUC1 peptide
T2 peptide: APDTRPAPGSTAPPAC

[5] = target: T2, MUC1 peptide (15 aa+cystein, …); assay: SPR, scFv over immobilized MUC1 peptide, Chip 2 (14 RU)
[6] = target: T2, MUC1 peptide (15 aa+cystein, …); assay: SPR, scFv over immobilized MUC1 peptide, Chip 2 (14 RU); Chip 2 (14 RU MUC1 peptide)

B1: R764-B7 (HT186-B7 IgG) (antibody, V domains shown)
VH: QMQLVQSGAEVKKPGASVKVSCKASGYTFTGHYMHWVRQAPGQGLEWMGWIDPVTGGTKYAQNFQGWVTMTRDTSIRTAYMELSRLRSDDTAMYYCAREVTGDRGQFDKWGQGTLVTVAS
VL: QSVLTQPPSVSVAPGKTARITCGGNNIGSKSVHWYQQKPGQAPALVIYYGSYRPSGIPERFSGSNYGNTATLTIRRVEAGDEADYYCQVWDSSSDWVFGGGTKLTVLG
notes: Human IgG1, lambda, produced in YB2/0 cells
In the case of B1, the “EC50 (read off the curve)” value (32-mer MUC1 peptide [1]) is reported as ~0.1 µg/mL, the “fold stronger binding than R764-G2 and R764-hHMFG1” value (32-mer MUC1 peptide [2]) is reported as 10 times and the “EC50 (read off the curve)” value (32-mer MUC1 peptide [3]) is reported as ~10 ng/well.

B2: R764-D11 (HT186-D11 IgG) (antibody, V domains shown)
VH: QMQLVQSEAELKKPGASVKVSCKASGYSFTGHYMHWVRQAPGQGLEWMGWIDPVTGGTKYAQNFQGWVTMTRDTSIRTAYLELSRLRSDDTAMYYCAREVTGDRGQFDKWGQGTLVTVAS
VL: QSVLTQPPSVSVAPGKTARITCGGNNIGSKSVHWYQQKPGQAPALVIYYGSNRPSGIPERFSGSNSGNTATLTISRVEAGDEADYYCQVWDSSSDWVFGGGTKLTVLG
notes: Human IgG1, lambda, produced in YB2/0 cells; also called R764 HT186-D11
In the case of B2, the “EC50 (read off the curve)” value (32-mer MUC1 peptide [1]) is reported as ~0.1 µg/mL, the “fold stronger binding than R764-G2 and R764-hHMFG1” value (32-mer MUC1 peptide [2]) is reported as 10 times and the “EC50 (read off the curve)” value (32-mer MUC1 peptide [3]) is reported as ~10 ng/well.

B3: HT186-B7 scFv (scFv)
scFv: QMQLVQSGAEVKKPGASVKVSCKASGYTFTGHYMHWVRQAPGQGLEWMGWIDPVTGGTKYAQNFQGWVTMTRDTSIRTAYMELSRLRSDDTAMYYCAREVTGDRGQFDKWGQGTLVTVASASTKGPSVKLEEGEFSEARVQSVLTQPPSVSVAPGKTARITCGGNNIGSKSVHWYQQKPGQAPALVIYYGSYRPSGIPERFSGSNYGNTATLTIRRVEAGDEADYYCQVWDSSSDWVFGGGTKLTVLGQPKAAPSVTLFPPS
notes: scFv as VH-truncated CH1-linker-VL-truncated CL, made in the E. coli periplasm and purified by its His-tag; not shown: C-terminal His-tag used for purification and detection
Binder B3 has a Ka [4] of 7.5e+08 M⁻¹, a Kd [4] of 1.3 nM and a koff [4] of 4.6e-05 s⁻¹. For the same binder, the kon [4] was 35000 M⁻¹ s⁻¹, the Ka [5] was 6.3e+08 M⁻¹ and the Kd [5] was 1.6 nM. The koff [5] was 0.00014 s⁻¹ and the kon [5] was 90000 M⁻¹ s⁻¹.

B4: HT200-3A-C1 scFv (scFv)
scFv: QMQLVQSGAEVKKPGASVKVSCKASGYTFTGHYMHWVRQAPGQGLEWMGWIDPVTGGTKYAQNFQGWVTMTRDTSIRTAYMELSRLRSDDTAMYYCAREVTGDRGQFDKWGQGTLVTVASASTKGPSAKLEEGEFSEARVQSVLTQPPSVSMAPGETARITCGGNNIGSKSVHWYQQKPGQAPVLVIYNDSDRPSGIPERFSGSNSGKTATLTISRVEAGDEADYYCQVWDSSIDWVFGGGTKLTVLGQPKAAPSVTLFPPS
notes: as for B3
With B4 the Ka [4] was 4.8e+08 M⁻¹, the Kd [4] was 2.1 nM and the koff [4] was 0.0001 s⁻¹. The kon [4] was 49000 M⁻¹ s⁻¹.

B5: HT186-G2 scFv (scFv)
scFv: RMQLVQSGAEVKKPGASVKLSCKASGYTFAGHYMHWVRQAPGRGLEWMGWIDPVTGGTKYAQNFQGWVTMTRDTSIRTAYMELSRLRSDDTAMYYCAREVTGDRGQFDKWGQGTLVTVASASTKGPSVKLEEGKFLEAHVQSVLTQPPSVSVAPGKTARITCGGNNIGSKSVHWYQQKPGQAPVLVIYYGSDRSSGIPERFSGSNSGNTATLTISRVEAGDEADYYCQVWDSSSDWVFGGGTKLTVLGQPKAAPSVTLFPPS
notes: as for B3
Binder B5 has a Ka [4] of 1e+09 M⁻¹, a Kd [4] of 1 nM and a koff [4] of 7.2e-05 s⁻¹. It also gave a kon [4] of 72000 M⁻¹ s⁻¹, a Ka [5] of 6.6e+08 M⁻¹ and a Kd [5] of 1.5 nM. It also gave a koff [5] of 0.00011 s⁻¹ and a kon [5] of 73000 M⁻¹ s⁻¹.

B6: HT186-D11 scFv (scFv)
scFv: QMQLVQSEAELKKPGASVKVSCKASGYSFTGHYMHWVRQAPGQGLEWMGWIDPVTGGTKYAQNFQGWVTMTRDTSIRTAYLELSRLRSDDTAMYYCAREVTGDRGQFDKWGQGTLVTVASSSTKGPSVKLEEGEFSEARVQSVLTQPPSVSVAPGKTARITCGGNNIGSKSVHWYQQKPGQAPALVIYYGSNRPSGIPERFSGSNSGNTATLTISRVEAGDEADYYCQVWDSSSDWVFGGGTKLTVLGQPKAAPSVTLFPSS
notes: as for B3
B6 was tested, and the Kd [6] was 0.65 nM, the Ka [4] was 1.8e+09 M⁻¹ and the Kd [4] was 0.57 nM. It also gave a koff [4] of 2.1e-05 s⁻¹, a kon [4] of 38000 M⁻¹ s⁻¹ and a Ka [5] of 1.5e+09 M⁻¹.

B7: HT220-M-G8 scFv (scFv)
scFv: QMQLVQSGAEVMKPGASVKVSCKASGYSFTGHYMHWVRHAPGQGLEWMGWIDPVTGSTKYAQNFQGWVTMTRDTSISTAYMELSRLRSDDTAMYYCAREVTGDRGQFDKWGQGTLVTVASASTKGPSVKLEEGEFSEARVQSVLTQPPSVSVAPGKTARITCGGNNIGSKSVHWYQQKPGQAPVLVIYYGSDRPSGIPERFSGSNTGNMATLTISRVEAGDEADYYCQVWDSSSDWVFGGGTKLTVLGQPKAAPSVTLFPPS
notes: as for B3
B7 showed a Ka [4] of 2.3e+08 M⁻¹, a Kd [4] of 4.4 nM and a koff [4] of 0.00022 s⁻¹. It also gave a kon [4] of 50000 M⁻¹ s⁻¹.

B8: HT220-M-D1 scFv (scFv)
scFv: QMLLVQSGAEAKKPGASVKVSCKASGYTFTGHYMHWVRQAPGQGLEWMGWIDPVTGGTKYAQNFQGWVTMTRDTSIRTAYMELSRLRPDDTAMYYCAREVTGDRGQFDKWGQGTLVTVASASTKGPSVKLEEGEFSEARVQSVLTQPPSVSVVPGKTARIICGGNNIGSKSVHWYQQKPGQAPVLVIYNNSDRPSGIPERFSGSNSGNMATLTISRVEAGDESDYYCQVWDSSSDWVFGGGTRLTILGQSKAAPSVTLFPPS
notes: as for B3
In the case of B8, the Ka [4] is reported as 2.8e+08 M⁻¹, the Kd [4] is reported as 3.7 nM and the koff [4] is reported as 0.00011 s⁻¹. For the same binder, the kon [4] was 29000 M⁻¹ s⁻¹.
